The results in this text go back to PMC4691890.

The experiment deals with T1, full-length human Apaf-1 (residues 1–1248) (human), O14727.
T1 chain: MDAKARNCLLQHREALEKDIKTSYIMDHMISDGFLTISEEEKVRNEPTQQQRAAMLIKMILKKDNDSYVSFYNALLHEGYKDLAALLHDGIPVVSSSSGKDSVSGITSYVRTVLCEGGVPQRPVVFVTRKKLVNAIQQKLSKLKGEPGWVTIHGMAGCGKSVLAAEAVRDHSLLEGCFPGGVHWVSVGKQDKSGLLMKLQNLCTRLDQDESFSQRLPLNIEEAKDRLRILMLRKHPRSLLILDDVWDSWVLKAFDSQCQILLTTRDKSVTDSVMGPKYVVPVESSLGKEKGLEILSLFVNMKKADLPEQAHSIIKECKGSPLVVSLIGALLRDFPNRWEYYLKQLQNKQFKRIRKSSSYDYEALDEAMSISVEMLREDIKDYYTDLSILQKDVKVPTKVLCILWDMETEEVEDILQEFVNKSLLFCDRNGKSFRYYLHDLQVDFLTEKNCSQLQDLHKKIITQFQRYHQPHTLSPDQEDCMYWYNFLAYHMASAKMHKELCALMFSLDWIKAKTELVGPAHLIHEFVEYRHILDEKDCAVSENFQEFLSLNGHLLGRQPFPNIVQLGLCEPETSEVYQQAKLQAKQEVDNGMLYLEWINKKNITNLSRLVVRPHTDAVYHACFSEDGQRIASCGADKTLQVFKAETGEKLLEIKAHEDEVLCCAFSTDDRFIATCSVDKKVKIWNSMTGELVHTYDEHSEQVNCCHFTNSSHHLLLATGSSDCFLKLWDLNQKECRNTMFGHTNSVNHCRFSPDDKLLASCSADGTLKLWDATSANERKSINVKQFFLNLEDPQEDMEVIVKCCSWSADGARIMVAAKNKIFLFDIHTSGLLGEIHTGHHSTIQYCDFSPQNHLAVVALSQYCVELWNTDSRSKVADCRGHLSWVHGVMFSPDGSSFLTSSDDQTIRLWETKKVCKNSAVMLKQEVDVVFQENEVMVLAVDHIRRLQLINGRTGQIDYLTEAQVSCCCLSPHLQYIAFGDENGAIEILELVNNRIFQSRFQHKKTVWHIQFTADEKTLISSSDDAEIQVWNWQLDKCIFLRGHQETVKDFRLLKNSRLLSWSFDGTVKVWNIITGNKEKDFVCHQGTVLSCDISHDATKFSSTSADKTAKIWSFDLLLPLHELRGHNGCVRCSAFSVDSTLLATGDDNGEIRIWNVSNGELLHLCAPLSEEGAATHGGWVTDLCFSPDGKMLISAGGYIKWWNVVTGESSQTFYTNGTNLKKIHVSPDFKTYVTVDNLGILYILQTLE
Briefly: cryo-EM structure; apoptosome assembled from full-length Apaf-1 with horse CytC (Sigma) at ~1:2 and 1 mM dATP; ~5 μM on grids; 3.8 Å overall, ~5 Å in the spokes after local masking. To be noted: remark: other sources report otherwise.

B1: full-length human Apaf-1 (residues 1–1248), O14727 1-1248 (natural protein)
chain: MDAKARNCLLQHREALEKDIKTSYIMDHMISDGFLTISEEEKVRNEPTQQQRAAMLIKMILKKDNDSYVSFYNALLHEGYKDLAALLHDGIPVVSSSSGKDSVSGITSYVRTVLCEGGVPQRPVVFVTRKKLVNAIQQKLSKLKGEPGWVTIHGMAGCGKSVLAAEAVRDHSLLEGCFPGGVHWVSVGKQDKSGLLMKLQNLCTRLDQDESFSQRLPLNIEEAKDRLRILMLRKHPRSLLILDDVWDSWVLKAFDSQCQILLTTRDKSVTDSVMGPKYVVPVESSLGKEKGLEILSLFVNMKKADLPEQAHSIIKECKGSPLVVSLIGALLRDFPNRWEYYLKQLQNKQFKRIRKSSSYDYEALDEAMSISVEMLREDIKDYYTDLSILQKDVKVPTKVLCILWDMETEEVEDILQEFVNKSLLFCDRNGKSFRYYLHDLQVDFLTEKNCSQLQDLHKKIITQFQRYHQPHTLSPDQEDCMYWYNFLAYHMASAKMHKELCALMFSLDWIKAKTELVGPAHLIHEFVEYRHILDEKDCAVSENFQEFLSLNGHLLGRQPFPNIVQLGLCEPETSEVYQQAKLQAKQEVDNGMLYLEWINKKNITNLSRLVVRPHTDAVYHACFSEDGQRIASCGADKTLQVFKAETGEKLLEIKAHEDEVLCCAFSTDDRFIATCSVDKKVKIWNSMTGELVHTYDEHSEQVNCCHFTNSSHHLLLATGSSDCFLKLWDLNQKECRNTMFGHTNSVNHCRFSPDDKLLASCSADGTLKLWDATSANERKSINVKQFFLNLEDPQEDMEVIVKCCSWSADGARIMVAAKNKIFLFDIHTSGLLGEIHTGHHSTIQYCDFSPQNHLAVVALSQYCVELWNTDSRSKVADCRGHLSWVHGVMFSPDGSSFLTSSDDQTIRLWETKKVCKNSAVMLKQEVDVVFQENEVMVLAVDHIRRLQLINGRTGQIDYLTEAQVSCCCLSPHLQYIAFGDENGAIEILELVNNRIFQSRFQHKKTVWHIQFTADEKTLISSSDDAEIQVWNWQLDKCIFLRGHQETVKDFRLLKNSRLLSWSFDGTVKVWNIITGNKEKDFVCHQGTVLSCDISHDATKFSSTSADKTAKIWSFDLLLPLHELRGHNGCVRCSAFSVDSTLLATGDDNGEIRIWNVSNGELLHLCAPLSEEGAATHGGWVTDLCFSPDGKMLISAGGYIKWWNVVTGESSQTFYTNGTNLKKIHVSPDFKTYVTVDNLGILYILQTLE
In the case of B1, the stoichiometry N (usually the number of molecules, sites or subunits per partner or assembly) is 7.
